Experimental findings from IntAct's records for PubMed 16980972 are described below.

In this test the target is asf1a_human ASF1A (UniProt Q9Y294).
Sequence of asf1a_human ASF1A (Q9Y294 whole entry): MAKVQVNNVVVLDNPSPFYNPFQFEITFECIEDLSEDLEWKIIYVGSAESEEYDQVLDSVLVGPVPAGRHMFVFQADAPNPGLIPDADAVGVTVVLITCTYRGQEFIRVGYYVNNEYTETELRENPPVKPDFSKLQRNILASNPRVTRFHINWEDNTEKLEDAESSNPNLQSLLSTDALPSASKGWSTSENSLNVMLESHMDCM

For the substance “Chromatin assembly factor 1 subunit B (Homo sapiens) (from UniProt Q13112) R483A;R499A”, the “effect of a mutation on the interaction” value was “disrupting interaction”.
